Data reported in paper PMC5601897, “The catalytic subunit of DNA polymerase δ inhibits γTuRC activity and regulates Golgi-derived microtubules” (Nature Communications, 2017).

Target: γ-tubulin ring complex (γTuRC), purified (human (endogenous in HEK293T), UniProt P23258 1-451; Q9BSJ2 1-902; Q96CW5 1-907; Q9UGJ1 1-667; Q96RT8 1-1024; Q96RT7 …)
Experiment: cell-based or functional assay

- IC50 of inhibition of in vitro microtubule nucleation by purified γTuRCs reconstituted with CDK5RAP2(51–200) (28 nM); PolD1 at various concentrations: 98 nM
B1: recombinant FLAG-PolD1 (wild type), purified (natural protein, human, UniProt P28340 1-1107, looked up)
chain: MDGKRRPGPGPGVPPKRARGGLWDDDDAPRPSQFEEDLALMEEMEAEHRLQEQEEEELQSVLEGVADGQVPPSAIDPRWLRPTPPALDPQTEPLIFQQLEIDHYVGPAQPVPGGPPPSRGSVPVLRAFGVTDEGFSVCCHIHGFAPYFYTPAPPGFGPEHMGDLQRELNLAISRDSRGGRELTGPAVLAVELCSRESMFGYHGHGPSPFLRITVALPRLVAPARRLLEQGIRVAGLGTPSFAPYEANVDFEIRFMVDTDIVGCNWLELPAGKYALRLKEKATQCQLEADVLWSDVVSHPPEGPWQRIAPLRVLSFDIECAGRKGIFPEPERDPVIQICSLGLRWGEPEPFLRLALTLRPCAPILGAKVQSYEKEEDLLQAWSTFIRIMDPDVITGYNIQNFDLPYLISRAQTLKVQTFPFLGRVAGLCSNIRDSSFQSKQTGRRDTKVVSMVGRVQMDMLQVLLREYKLRSYTLNAVSFHFLGEQKEDVQHSIITDLQNGNDQTRRRLAVYCLKDAYLPLRLLERLMVLVNAVEMARVTGVPLSYLLSRGQQVKVVSQLLRQAMHEGLLMPVVKSEGGEDYTGATVIEPLKGYYDVPIATLDFSSLYPSIMMAHNLCYTTLLRPGTAQKLGLTEDQFIRTPTGDEFVKTSVRKGLLPQILENLLSARKRAKAELAKETDPLRRQVLDGRQLALKVSANSVYGFTGAQVGKLPCLEISQSVTGFGRQMIEKTKQLVESKYTVENGYSTSAKVVYGDTDSVMCRFGVSSVAEAMALGREAADWVSGHFPSPIRLEFEKVYFPYLLISKKRYAGLLFSSRPDAHDRMDCKGLEAVRRDNCPLVANLVTASLRRLLIDRDPEGAVAHAQDVISDLLCNRIDISQLVITKELTRAASDYAGKQAHVELAERMRKRDPGSAPSLGDRVPYVIISAAKGVAAYMKSEDPLFVLEHSLPIDTQYYLEQQLAKPLLRIFEPILGEGRAEAVLLRGDHTRCKTVLTGKVGGLLAFAKRRNCCIGCRTVLSHQGAVCEFCQPRESELYQKEVSHLNALEERFSRLWTQCQRCQGSLHEDVICTSRDCPIFYMRKKVRKDLEDQEQLLRRFGPPGPEAW
